{"source": "patent US6153391A", "about": "“Interruption of binding of MDM2 and P53 protein and therapeutic application thereof” (University of Dundee, priority 1998, dated 2000)", "molecular_target": "T1, mouse MDM2 (Mus musculus, UniProt P23804)", "T1 construct": "gene PCR-cloned from mouse prostate cell line", "T1 sequence (P23804 whole entry)": "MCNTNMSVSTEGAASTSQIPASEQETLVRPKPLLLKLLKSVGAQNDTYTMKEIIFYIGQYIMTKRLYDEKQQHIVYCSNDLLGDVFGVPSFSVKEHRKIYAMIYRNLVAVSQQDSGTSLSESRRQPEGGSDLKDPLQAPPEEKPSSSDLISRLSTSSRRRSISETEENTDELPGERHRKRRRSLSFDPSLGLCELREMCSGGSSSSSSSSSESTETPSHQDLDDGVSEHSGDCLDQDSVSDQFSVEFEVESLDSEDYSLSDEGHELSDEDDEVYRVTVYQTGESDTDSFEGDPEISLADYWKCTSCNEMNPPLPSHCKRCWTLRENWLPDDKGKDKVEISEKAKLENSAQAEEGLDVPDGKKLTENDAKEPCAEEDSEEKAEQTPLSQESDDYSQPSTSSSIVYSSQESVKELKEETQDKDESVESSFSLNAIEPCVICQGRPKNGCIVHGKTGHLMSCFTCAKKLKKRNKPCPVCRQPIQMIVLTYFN", "experiment": "ELISA of MDM2 binding to immobilised biotinylated p53 peptides (peptide library, alanine and conserved substitution series)", "conditions": "consensus peptide and alanine substitution series, Example 3, FIG. 5", "procedure": "The libraries were in the form of 15 mer peptides linked to biotin via an additional peptide spacer region of serine-glycine-serine-glycine, and each peptide shared a 5 amino acid overlap with the previous peptide in the primary sequence. ELISA plates were coated with 100 μof 5 μg/ml streptavidin (vector labs) per well and incubated overnight at 37° C. and then blocked with phosphate buffered saline (PBS) containing 2% bovine serum albumin (BSA) for 1 hour at room temperature. The stock biotinylated peptides were diluted to 5 μg/ml in PBS containing 0.1 BSA and 50 μl of each were plated into designed wells and then incubated at room temperature for 1 hour. […] In the case of cell extracts bound protein was detected with the appropriate primary antibody at 1-3 μg/ml, and followed by an anti-mouse horse radish peroxidase conjugate and 3'3'4'4'-tetramethyl benzidine (TMB) substrate as in the standard ELISA assay (Harlow, E., et al (1988). Antibodies: a laboratory manual. New York. Cold Spring Harbor Laboratory Press and Lane, 1988).\nThese libraries consisted of 15 amino acid long sections of the p53 primary amino acid sequence, that consecutively overlapped by 5 amino acids, and were each attached to biotin via a 4 amino acid long spacer. […] The results are presented alongside the ELISA readings for extract of insect cells alone not expressing mouse MDM2. […]", "data": [{"sequence": "QETFSDLWKL", "values": [{"measurement": "level of MDM2 binding as measured by ELISA", "value": "higher level of binding of MDM2"}]}]}
